# According to the supplement of paper PMC12042874:
# ± gives the uncertainty stated by the source.
# Experiment: amyloid nucleation score (Sup35N fusion, yeast selection) (log enrichment); library NNK3; higher = more nucleation; inactive = no reads after selection
# Procedure, shortened: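 Libraries of peptides of 20 random codons fused to Sup35N were expressed in psi-negative yeast and induced 24 hours with 100 μM copper sulfate. Selection was 7 days at 30°C on medium lacking adenine and uracil, and plasmid inserts were Illumina-sequenced before and after selection. Nucleation score is the DiMSum log enrichment of output over input reads, centred on the mode score of non-aggregating sequences, and sequences with under 100 input reads were left out.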
row,Substance,amyloid nucleation score
1,VLIKQECSQRFFDSNLNWHF,0.688 ± 0.33
2,VLADYGTM,inactive
3,KSVVGFFVSARYCCTLGTGG,inactive
4,FTVTCPGREANIYIFFRGGR,1.37 ± 0.13
5,SCSSTDDWPGISSG,inactive
6,KHFLQVVRSSNRTVSARFPL,inactive
7,RDLMEGRTTLWMNSGTAIWA,inactive
8,NSFDNFFSLNLNTGAYY,inactive
9,LHVDS,inactive
10,RVDSYVSMTYHIRWFFVRTE,inactive
11,YRTARVSG,inactive
12,HHLSTRINCIDRVRSPNLRL,-0.708 ± 1.4
13,FWSHLTLTSSSFKFGTVSR,inactive
14,HLFGDFDKWVDKLWRYNRVD,0.985 ± 0.21
15,KRDTSWLPVCNSGLSQCRKR,inactive
16,FRGEMLFKVQF,0.275 ± 0.27
17,ISFGYQVYA,inactive
18,WQVVGYKNLDLCVNLATTDW,inactive
19,RGSSTIYNETGLLGRLKGM,inactive
20,PQCESLMYCGD,inactive
21,QYKLFFYWESMV,inactive
22,AVQHIVEFILICQMFTYTHH,inactive

row,Substance,amyloid nucleation score
1,WTMSKLNGRCTSCPHLARLS,inactive
2,LIVNSRSVFNITHFLNINYQ,2.1 ± 0.077
3,FIMRSSSC,inactive
4,RSVVEWGS,inactive
5,RNYDFSKGITVSWRLLHA,inactive
6,WGLMIWSWPYMFCTLLPASR,inactive
7,SRWATGWTTIISYMEPWFRA,inactive
8,IHKCYT,inactive
9,TQDIKLFHRMDFQLSIKMNS,inactive
10,DRELSFLPGYYLYARVRHKS,inactive
11,LVWHLHSSSCRARCRIGGGK,inactive
12,CYFQYGNWFHLEGRNRSRSN,1.17 ± 0.19
13,LVDHLFDMITMHDGPCQLHQ,inactive
14,IIIVKCT,inactive
15,WQSRTKP,inactive
16,QLFVRVIWDMP,0.186 ± 0.45
17,PGDVRLGDIVLIFFLRM,0.781 ± 0.26
18,VALAGNYCSANVVHCMFLNL,inactive
19,QNCQVLKFRAILFNYLLFLT,inactive
20,LGEWYWYYFFRARR,inactive
21,MAWGLVNMRMSLSAKYQGAL,inactive
22,FAICMFRGYLLYFLGLEDEA,inactive

row,Substance,amyloid nucleation score
1,SGAQARDV,inactive
2,CHQKMSVA,inactive
3,YSNHLD,inactive
4,SSYYFFCDGLIFELLSQDNS,inactive
5,IFVVSNFISSSMNYRSYCYL,inactive
6,VSCESECLLLMIKKYFGSDS,0.12 ± 0.26
7,SDKRQLRDR,inactive
8,MMGIGVACYVKCGFFVYNWG,inactive
9,LASFEIRNREY,0.519 ± 0.33
10,APSYISRFVLLTDMPEAQTL,inactive
11,LYDLNLSDLMNCRYTIRGWF,inactive
12,VFMKNLNKIDILTSGLDHIY,inactive
13,YLGCSINLGTEDIIYAESEH,inactive
14,SFGLF,inactive
15,GLGYFPIWASLRTKLVLILG,inactive
16,FMYKLSLLVCDKWLIVILPF,inactive
17,KIYANHLL,inactive
18,NCMYSLSMQREPFYPSRGVD,inactive
19,WEHLGETYGVFMSTEDRESG,inactive
20,VWVSVWVVLTAV,inactive
21,LNHGVCIFYDQFANLELPPR,2.09 ± 0.067
22,AIFFSFYRSFY,1.86 ± 0.053
